Laboratory results published in the DeepSol protein solubility set.

Experiment: soluble on expression in E. coli; label from the status in PepcDB or PDB records

| Sequence | soluble on expression in E. coli |
| --- | --- |
| MKDQNGVASTDDSVLPSWSNPDVGQFIVSTYNEYEYKRIPFRELEFGCLLCRMRTFNHEGMKKHLRDHVVHKKSSCEHEKPGKTGIHHQVDKAGNGVMPENGQLVQCYIEIKLADCYTSWSNYESQNPIIFKIGFGEVIPGLDIGIPKMKVGEIATFHVSGKYGYGRAGFRGLIPRNASLTCKVRLFNCSWDSYAKIGVDRQILVQGDNVTKSKNGQTVTCHYVLILVDGTKIDSSRDRETPFKFKIGKGEVIKGWDQGVAQMSVKEKSKLTIAPAFGFEKGKLPAGIPA | not soluble |
| MKDTFRLENQTIYFGTERAISASPQTIWRYLTETDKLKQWFPELEIGELGVNGFWRFILPDFEETMPFTDYAEEKYLGVTWDTGIIYFDLKEQAPHQTLLVFSESLPENFTTPRHKDIAGWSIVLNRLKQVVETPDAAPEKIDFPQIENHYLEKLTNLEN | soluble |
| MKEDPRIIKTLSKLQKAFVMLLKTYDAGDINVRQISDEAGVTRGAFYSHFSDKKEFVNFTINELVGSLFNSSLEHHHHHH | not soluble |
| MKEEAVRVIEEVLKQGRTAMVEYEAKQVLKAYGLPVPEEKLAKTLDEALEYAKEIGYPVVLKLMSPQILHKSDAKVVMLNIKNEEELKKKWEEIHENAKKYRPDAEILGVLVAPMLKPGREVIIGVTEDPQFGHAIMFGLGGIFVEILKDVTFRLVPITEKDARKMIQEIKAYPILAGARGEEPADIDAIVDMLLKVSKLVDDLKDYIKEMDLNPVFVYNKGEGAVIVDSRIILKPKD | soluble |
| MKEEEKTRLVIVQGPTASGKSALALELAERIGGEIVNADSMQVYRGMDIGTAKPSQEERRRVPHHLYDIVDPKVNFTAADFREHASRAIADIERRGKRVILVGGTGLYIRILTQGLVASPGGDDNIRRELEDQAHGEGLESLHRRLAAVDPVAAARLHPNDGVRIVRALEVFLLTGRPLSAFQEAHRFADEPYRCLKLGITVERELLYRRVEERVDRMIAEGLVEEVRGLLSAGYPATLKAMGSIGYREICAHLAGEFSLDEAMRLIKQNTRQYAKRQMTWFRRDSEIIWVEYPGKFDSILSTVMGFYHLEHHHHHH | soluble |
| MKEKIPFYNEKEFNEMMKKTKKGTFSGWYIINPENKSVEFSGNFNRQFKLNKPVIPVNTEYVTRKEFNEYKDSNDQRLTKIENKVDKLEVKVDKLEEKVDKLEAKVDKLEEKVDKLEAKVDKLEEKVDKLEAKVDSGFEMLAKILAAINKRLDSIEGRLDKIEPPKLEHHHHHH | not soluble |
| MKETDLAFFRSFKNRILKEINVMQLCRVVTVKGARADVQPMALKSDGGKRALILNALITKHCQSDISQGAVVVVVFCDRDIDNYRSSADYSLSSDRMHSQNDAVIMGVIA | not soluble |
| MKEVRIVFQPGEISVPVAAGTTIMEAMNRSGLGEDFPCGGRGKCGKCRVKVREGREDFTAIDEDHLTAQELAEGVRLACATKINRDMMVEMQSPKKLQHHILIDSAARAFHIHPHLVKVFAEIAQPSLSEHKSDWQRLQESLAGLGCSVHDLQAPLSVLRRLPDTLRESTNRVTTIVYGSQVLGVEQGDTTGTLLGMAFDIGTTTIVGYLLDLNSGRELEVVSTLNPQAQYGGDVISRITFAGKEEKGLDTLHQAVTGAMNRLIGEAVDKAGVSRTQLYGISVAANTTMHHLFLGITPRSIGMSPYVSAINQGLVVAPGELGLEINKAGRVFVLPNIAGFVGADTTAVLLASDLEKSDHVTLILDIGTNGEIVLGSKNRMVACSAAAGPAFEGAQITSGMRGADGAIDHISFDHGLSYTVIGNGRPIGICGSALLDGVAGFVELGMINKRGKFLEPEKLTHPSALKLKDRLIKYEETWAFQLVEAGQTRHGRPILITQNDIRELQLAKGAIAAGVRILQEAMGIECEDIKEVLLAGAFGNYLNPHSACVIGLIPRELESRIKTIGNAAGNGAKIALLSAQEFSRAKDLAGGVSFVELGSYPGFNTIFAQNTYFKLD | soluble |
| MKFEFRTLVLISLAVVVVLSGCSQSPSSGGVPEYSGSKVYSAPTLYSQLIGVPTEGVSVKAYTVENANAKDILSWYKEKLSDYEIVNEMSVVQMTTPQGSAEWGAILFKKGDKGVGIWAMSGSGVEGGGAVYFIVEGPIDKLTGESGEAGGAGEQLPASDQASGEEPVKRYPGSVMLSYYKDTSNPLEVSIGIDYGTEDSAEKVAHWYKQELQAEGWVLESESSDDSSIDLAFSRGKEYIDIYIIEPYEGFLTRKLTSTTGRRGCHLTTWSVERSRWRGIPAQLCWNT | not soluble |
| MKFIQNLTKIHQSTSHMAHAHRSDSAVDSQVASTLREDTVARFSMLMKHPRSLARPTVTWRPPSLKLVGLHSTISPQPHLVASISRRRIGPSVKARLKGFGVRQQPAYLMSVRISDSKSNNVSFEHAEQWMLQLVGPQYAECIHMITDHGQCPVFVWIVGGDFQPLPSPASMFQTFQAAA | not soluble |
| MKFKTNKLSLNLVLASSLLAASIPAFAVTGDTDQPIHIESDQQSLDMQGNVVTFTGNVIVTQGTIKINADKVVVTRPGGEQGKEVIDGYGKPATFYQMQDNGKPVEGHASQMHYELAKDFVVLTGNAYLQQVDSNIKGDKITYLVKEQKMQAFSDKGKRVTTVLVPSQLQDKNNKGQTPAQKKGN | soluble |
| MKFRRSGRLVDLTNYLLTHPHELIPLTFFSERYESAKSSISEDLTIIKQTFEQQGIGTLLTVPGAAGGVKYIPKMKQAEAEEFVQTLGQSLANPERILPGGYVYLTDILGKPSVLSKVGKLFASVFAEREIDVVMTVATKGIPLAYAAASYLNVPVVIVRKDNKVTEGSTVSINYVSGSSNRIQTMSLAKRSMKTGSNVLIIDDFMKAGGTINGMINLLDEFNANVAGIGVLVEAEGVDERLVDEYMSLLTLSTINMKEKSIEIQNGNFLRFFKDNLLKNGETESHHHHHH | soluble |
| MKFSRPVLSVNHLILGKKCDVCRKKCSGDVLKANDKYFHINCFQCKKCGRNLGETGFYTTPENAYLCPDDFRAVSKEITVKTTTQQAHASSSSAATPKSPEKSNGTTDVSSSGAANATLQQISPLGSPTTCAACDQALHSGQVLLALGLSWHVYCFKCSECSAVLHGEYMSHHGKPLCLRDYNEKFGVKCYECEKFIAGKVLQAGGYKFHPTCARCSRCGSHFGDGEEMYMQGDEIWHPSCEHARTTENIAPTGRAATLSRNEPKYQSTFGQHQAYMYLLPEVEQTYLRHPVMNAKEPNAPQYHVPQGPIKIRKSRMSMLKTGMQRLTEDLEKNIPRPKSPHMDNEEPIELAHYPAAHVPDPDTLPAIEREDFPAPQFPYAVEELKRRLSTSSVENEISDDEYSESDKVDEDKLRKTVETLEKYNDSSIAHVIRQNIEDSHKKQRLPLHWDPRNASRTPSGKKMPHLKFRYDVPINASPSRHLNRPRPWVVWQGGERDQGNNTLPCFHIPEDSRANTLRAATLPTEFGQNLSLENLDTTISSHYSEHSTTESGTAGGPRSAGGAVLRSSLPDMSKPAKQYDLLFLQTTNSDLPEDVDRQHLERHLPRDQFEEIFKMSLIEFYKLPEWKRINLKRKHKLF | not soluble |
| MKFTWIALPGVLLLSACSSSQPNAPRPPRIGMPNPAAVYCEQQGGTLMPVQTPQGVRSDCKLPNGEIIDEWTLWRREHPDTKK | not soluble |
| MKGPYKHFMQKEIFEQPDSAFNTMRGRIDFENCVVTLGGLKSWLSTIRRCRRIIMIACGTSYHSCLATRSIFEELTEIPVSVELASDFLDRRSPVFRDDTCVFVSQSGETADSILALQYCLERGALTVGIVNSVGSSMSRQTHCGVHINAGPEIGVASTKAYTSQYIALVMFALSLSNDSISRKGRHEEIIKGLQKIPEQIKQVLKLENKIKDLCNSSLNDQKSLLLLGRGYQFATALEGALKIKEISYMHSEGVLAGELKHGILALVDEDLPIIAFATRDSLFPKVMSAIEQVTARDGRPIVICNEGDAIISNDKVHTTLEVPETVDCLQGLLNVIPLQLISYWLAVNRGIDVDFPRNLAKSVTVE | soluble |
| MKGVNMFERFTDRARRVIVLAQEEARGLNHNYIGTEHILLGLIHEGEGVAAKALESMGISLEAVRQEVEEIIGHGSEPPAGHIPFTPRAKKVLELSLREGLQMGHKYIGTEFLLLGLIREGDGVAAQVLVKLGADLPRVRQQVIQLLS | not soluble |
| MKGVNQQKKRLKVMTPLEKYQQDLNQEGFMHDSAQRNAVEHLDDLYRRFLELKVPEEPAKKSWKRFFKKEKPQKLTPEKGLYFWGGVGRGKTYLVDTFYDALPTERKMRIHFHRFMQRVHDELGELKQQSDPLLIVADKFKQETDIICFDEFFVSDITDAMILATLLEALFARGITLVATSNILPQDLYRNGLQRARFLPAISLIEQHCDIINVDSGVDYRLRTLEQAEIYHYPLDSDAETNMKGYFLQLASGCDYESTQIEINHRLIEVKAEGDGVVHFDFASLCESARSQHDYIELSRLYHTVLLSNVKIMGEVNDDAARRFIAMVDEFYERNVKLIISAEVDLTSIYQKGRLTFEFQRCQSRLIEMQSHEYLSKEHLSLEHHHHHH | not soluble |
| MKHPIRKTLVTLGLLLTLCLPTPVAASSRSWKSWFIEQYFWLKRDKSYYSKQDDPSFQRYLDACREQSDKPYQLDTNLVNGPLVQENLYGMQVYSWNDNGKPDQKTIIYLAGGSYLNNPTTYHINMLKTLSTSLDAKIVLPIYPKAPRYTYNYTMPKLVNLYQHYYHKNQNVFLMGDSAGGGLALGLAHALHNESVPQPKQLVLLSPWLDVTMSHPEIPEYEDADPILSSWGLKRVGELWAYSADNTNHIYVSPKNGPITYLPPITLFTGTREIFYPDIRDYAAKLKAANHNITFITQEGMNHVYPIYPIEEAKTAQYQIIDAINKTP | not soluble |
| MKIACVVLTYNRLSLLKRCIDSIRNQTYQEFDIYVIDNASTDGTAHWLSLQNDLTVISIHENKGPANGFYTCLQVPYDDGYDWIWMMDDDGVADKGQLEELLNKTVKNNLYFTNALVCNIDNPEKIAFGAKKTIDTQREELIKGNINPFNGTFIHRRVIEKNGNIMREMYMYGCETEYQLRAIKNGFQVATVTSAIHYHPSPKVSICHLIPYIKYCSIIDYPIDTLFYIRNKAYINYTYLGFKRSLFMITSYSLYYLFRLKIRKVLLFWKYYREGCKGVVGNKKQ | soluble |
| MKIADGVYVHFIPTQKYKTNRIVFRMTGSLNKQTIAKRALVSQMLATANQTYPTVQSFKERLASLYGTQLSTKVSTKGLTHSVDIELTYLKDFFIPMNTSLFWEVLGFLMDCLYNPLSIVAQYQNKVFDIEKQNLMTYLDVDTENNYYYSEVQGRELYFVNEALKVPKYGRVELVEAETSFTAYQEFQSMLTKDRIDIFMVGEFDDYQVLRGLHRFPLEGRQVDLQFSYNQSYSKVVKEKIETRQTSQSILQLGYQFPCQYGDKDYFALIVFNGMLGEFAHSALFTKIREKEGLAYSIGSQFDAFTGLLEIYAGIEKSNRNQAMRGIIRELNHIKLGRFSSSLFNQTKKIIRMNALLSEDHALTLVEQHFNKVIFGDKKISLEDWLDKIEKVTKKDVCRIARQVKLQSLFFLEGVS | not soluble |
| MKIAFLFRTSPHGTSISREGLDAILAATAFCEPNDIGIFFIDDGVLNLIDNQQPEIIQQKDFIRTFKLLDLYDVEQRFICTASLQKFKLDNRELILSCEKIDRSLLLEKLNQAGKLFTF | not soluble |
| MKIAIAGAGAMGSRFGLMLKQGGNDVLLIDGWQEHINAIKENGLKANYNGEEITVKVSIVNQNEVPTGEQFDLIILFTKAMQLEKMLQDVKPLIADHTEVLCLLNGIGHEDVIEKFVPMEKIFIGNTMWTAGLEGPGKAKLFGSGSVELQNLGIGQEESAKKLAETLSASGLNAKYSDNIHYSIYRKACVNGTMNGLCTILDVNMAGLGATKPAHDMVVTIVNEFAAVAAKENVNLDIPEVIEHVETCFDPTTIGMHFPSMHQDLIKNNRLTEIDYINGAISRKGKKYGVVTPYCDFLTQLVHSKEEILGAK | not soluble |
